Measured values as given in patent publication KR20240034954A (dated 2024).

Legend:
야생형의 SIRPα = biological target: T1, 야생형의 SIRPα (Homo sapiens (Human), UniProt P78324 31-149, limits assumed); assay: western blot
T1 construct: also called wtSIRPα; wild-type SIRPα

[1] = biological target: T2, 서열번호 2의 아미노산 서열을 포함하는 SIRPα 변이체 (Homo sapiens (Human), UniProt P78324 31-149); assay: indirect ELISA, vSIRPα (SEQ ID NO 2) coated at 1.0 ug/ml, anti-mouse IgG Fcγ-peroxidase secondary
T2 construct: Engineered SIRPα variant; also called vSIRPα; vSIRPα antigen
T2 chain: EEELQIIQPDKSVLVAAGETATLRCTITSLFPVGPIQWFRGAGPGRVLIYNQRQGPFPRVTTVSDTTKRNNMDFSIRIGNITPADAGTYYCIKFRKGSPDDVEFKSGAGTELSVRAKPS

- binding result (야생형의 SIRPα): no binding
- binding result [1]: binds
B1: 항-vSIRPα 단일클론 항체 (SIRPα 변이체 특이적인 단일클론 항체) (antibody, V domains shown)
VH: EVQLQQSGPELVKPGASVKISCKASGYSFTGYYMHWVKQSHVKSLEWIGRINPYNGATNYNQNFKDKASLTLDKSSSTAYVELHSLTSEDSAVYYCTRNDGYYWYFDVWGAGTTVTVSS
VL: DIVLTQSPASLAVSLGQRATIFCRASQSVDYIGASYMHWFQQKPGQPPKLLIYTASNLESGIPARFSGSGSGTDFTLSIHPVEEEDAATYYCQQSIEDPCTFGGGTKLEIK
notes: Two clones were selected; also called 제작된 2종 항체; 개발한 항체 2종
